T1: human GM-CSFRα, full length on cells (human, UniProt P15509 23-400)
T1 sequence: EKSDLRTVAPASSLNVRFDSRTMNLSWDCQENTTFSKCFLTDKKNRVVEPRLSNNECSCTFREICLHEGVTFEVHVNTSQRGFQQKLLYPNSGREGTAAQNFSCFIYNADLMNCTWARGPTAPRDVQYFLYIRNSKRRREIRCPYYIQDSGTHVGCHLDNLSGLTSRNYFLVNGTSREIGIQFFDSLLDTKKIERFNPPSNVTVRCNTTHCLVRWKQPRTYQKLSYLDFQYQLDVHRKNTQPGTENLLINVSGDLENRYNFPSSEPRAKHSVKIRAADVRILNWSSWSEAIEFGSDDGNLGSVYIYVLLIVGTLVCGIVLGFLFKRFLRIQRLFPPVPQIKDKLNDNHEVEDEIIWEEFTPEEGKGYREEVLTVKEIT

B1: E35-scFv LS26A (scFv, V domains shown)
VH: QMQLVQSGAEVKKPGASVKVSCKVSGYTLTELSIHWVRQAPGKGLEWMGGFDPEDGETIYAQKFQGRVTMTGDTSTDTAYLELSSLRSEDTALYYCATGRYTSLATTYGFDYWGQGTLVTVSS
VL: EIVMTQSPATLSLSPGERATLSCRAAQSVSSYLAWYQQKPGQAPRLLIYGASSRATGIPDRFSGSGSGTDFTLTISRLEPEDFAVYYCQQYDNWPYTFGQGTKLEIK
B2: E35-scFv LQ27V (scFv, V domains shown)
VH: QMQLVQSGAEVKKPGASVKVSCKVSGYTLTELSIHWVRQAPGKGLEWMGGFDPEDGETIYAQKFQGRVTMTGDTSTDTAYLELSSLRSEDTALYYCATGRYTSLATTYGFDYWGQGTLVTVSS
VL: EIVMTQSPATLSLSPGERATLSCRASVSVSSYLAWYQQKPGQAPRLLIYGASSRATGIPDRFSGSGSGTDFTLTISRLEPEDFAVYYCQQYDNWPYTFGQGTKLEIK
B3: E35-scFv LQ27Y (scFv, V domains shown)
VH: QMQLVQSGAEVKKPGASVKVSCKVSGYTLTELSIHWVRQAPGKGLEWMGGFDPEDGETIYAQKFQGRVTMTGDTSTDTAYLELSSLRSEDTALYYCATGRYTSLATTYGFDYWGQGTLVTVSS
VL: EIVMTQSPATLSLSPGERATLSCRASYSVSSYLAWYQQKPGQAPRLLIYGASSRATGIPDRFSGSGSGTDFTLTISRLEPEDFAVYYCQQYDNWPYTFGQGTKLEIK
B4: E35-scFv LS26I (scFv, V domains shown)
VH: QMQLVQSGAEVKKPGASVKVSCKVSGYTLTELSIHWVRQAPGKGLEWMGGFDPEDGETIYAQKFQGRVTMTGDTSTDTAYLELSSLRSEDTALYYCATGRYTSLATTYGFDYWGQGTLVTVSS
VL: EIVMTQSPATLSLSPGERATLSCRAIQSVSSYLAWYQQKPGQAPRLLIYGASSRATGIPDRFSGSGSGTDFTLTISRLEPEDFAVYYCQQYDNWPYTFGQGTKLEIK
B5: E35-scFv LS26H (scFv, V domains shown)
VH: QMQLVQSGAEVKKPGASVKVSCKVSGYTLTELSIHWVRQAPGKGLEWMGGFDPEDGETIYAQKFQGRVTMTGDTSTDTAYLELSSLRSEDTALYYCATGRYTSLATTYGFDYWGQGTLVTVSS
VL: EIVMTQSPATLSLSPGERATLSCRAHQSVSSYLAWYQQKPGQAPRLLIYGASSRATGIPDRFSGSGSGTDFTLTISRLEPEDFAVYYCQQYDNWPYTFGQGTKLEIK
B6: E35-scFv LS26K (scFv, V domains shown)
VH: QMQLVQSGAEVKKPGASVKVSCKVSGYTLTELSIHWVRQAPGKGLEWMGGFDPEDGETIYAQKFQGRVTMTGDTSTDTAYLELSSLRSEDTALYYCATGRYTSLATTYGFDYWGQGTLVTVSS
VL: EIVMTQSPATLSLSPGERATLSCRAKQSVSSYLAWYQQKPGQAPRLLIYGASSRATGIPDRFSGSGSGTDFTLTISRLEPEDFAVYYCQQYDNWPYTFGQGTKLEIK
B7: E35-scFv LS26M (scFv, V domains shown)
VH: QMQLVQSGAEVKKPGASVKVSCKVSGYTLTELSIHWVRQAPGKGLEWMGGFDPEDGETIYAQKFQGRVTMTGDTSTDTAYLELSSLRSEDTALYYCATGRYTSLATTYGFDYWGQGTLVTVSS
VL: EIVMTQSPATLSLSPGERATLSCRAMQSVSSYLAWYQQKPGQAPRLLIYGASSRATGIPDRFSGSGSGTDFTLTISRLEPEDFAVYYCQQYDNWPYTFGQGTKLEIK
B8: E35-scFv LQ27T (scFv, V domains shown)
VH: QMQLVQSGAEVKKPGASVKVSCKVSGYTLTELSIHWVRQAPGKGLEWMGGFDPEDGETIYAQKFQGRVTMTGDTSTDTAYLELSSLRSEDTALYYCATGRYTSLATTYGFDYWGQGTLVTVSS
VL: EIVMTQSPATLSLSPGERATLSCRASTSVSSYLAWYQQKPGQAPRLLIYGASSRATGIPDRFSGSGSGTDFTLTISRLEPEDFAVYYCQQYDNWPYTFGQGTKLEIK
B9: E35-scFv LS26T (scFv, V domains shown)
VH: QMQLVQSGAEVKKPGASVKVSCKVSGYTLTELSIHWVRQAPGKGLEWMGGFDPEDGETIYAQKFQGRVTMTGDTSTDTAYLELSSLRSEDTALYYCATGRYTSLATTYGFDYWGQGTLVTVSS
VL: EIVMTQSPATLSLSPGERATLSCRATQSVSSYLAWYQQKPGQAPRLLIYGASSRATGIPDRFSGSGSGTDFTLTISRLEPEDFAVYYCQQYDNWPYTFGQGTKLEIK
B10: E35-scFv LQ27A (scFv, V domains shown)
VH: QMQLVQSGAEVKKPGASVKVSCKVSGYTLTELSIHWVRQAPGKGLEWMGGFDPEDGETIYAQKFQGRVTMTGDTSTDTAYLELSSLRSEDTALYYCATGRYTSLATTYGFDYWGQGTLVTVSS
VL: EIVMTQSPATLSLSPGERATLSCRASASVSSYLAWYQQKPGQAPRLLIYGASSRATGIPDRFSGSGSGTDFTLTISRLEPEDFAVYYCQQYDNWPYTFGQGTKLEIK
B11: E35-scFv LQ27I (scFv, V domains shown)
VH: QMQLVQSGAEVKKPGASVKVSCKVSGYTLTELSIHWVRQAPGKGLEWMGGFDPEDGETIYAQKFQGRVTMTGDTSTDTAYLELSSLRSEDTALYYCATGRYTSLATTYGFDYWGQGTLVTVSS
VL: EIVMTQSPATLSLSPGERATLSCRASISVSSYLAWYQQKPGQAPRLLIYGASSRATGIPDRFSGSGSGTDFTLTISRLEPEDFAVYYCQQYDNWPYTFGQGTKLEIK
B12: E35-scFv LQ27P (scFv, V domains shown)
VH: QMQLVQSGAEVKKPGASVKVSCKVSGYTLTELSIHWVRQAPGKGLEWMGGFDPEDGETIYAQKFQGRVTMTGDTSTDTAYLELSSLRSEDTALYYCATGRYTSLATTYGFDYWGQGTLVTVSS
VL: EIVMTQSPATLSLSPGERATLSCRASPSVSSYLAWYQQKPGQAPRLLIYGASSRATGIPDRFSGSGSGTDFTLTISRLEPEDFAVYYCQQYDNWPYTFGQGTKLEIK
B13: E35-scFv LS26Q (scFv, V domains shown)
VH: QMQLVQSGAEVKKPGASVKVSCKVSGYTLTELSIHWVRQAPGKGLEWMGGFDPEDGETIYAQKFQGRVTMTGDTSTDTAYLELSSLRSEDTALYYCATGRYTSLATTYGFDYWGQGTLVTVSS
VL: EIVMTQSPATLSLSPGERATLSCRAQQSVSSYLAWYQQKPGQAPRLLIYGASSRATGIPDRFSGSGSGTDFTLTISRLEPEDFAVYYCQQYDNWPYTFGQGTKLEIK
B14: E35-scFv LQ27F (scFv, V domains shown)
VH: QMQLVQSGAEVKKPGASVKVSCKVSGYTLTELSIHWVRQAPGKGLEWMGGFDPEDGETIYAQKFQGRVTMTGDTSTDTAYLELSSLRSEDTALYYCATGRYTSLATTYGFDYWGQGTLVTVSS
VL: EIVMTQSPATLSLSPGERATLSCRASFSVSSYLAWYQQKPGQAPRLLIYGASSRATGIPDRFSGSGSGTDFTLTISRLEPEDFAVYYCQQYDNWPYTFGQGTKLEIK
B15: E35-scFv LS26R (scFv, V domains shown)
VH: QMQLVQSGAEVKKPGASVKVSCKVSGYTLTELSIHWVRQAPGKGLEWMGGFDPEDGETIYAQKFQGRVTMTGDTSTDTAYLELSSLRSEDTALYYCATGRYTSLATTYGFDYWGQGTLVTVSS
VL: EIVMTQSPATLSLSPGERATLSCRARQSVSSYLAWYQQKPGQAPRLLIYGASSRATGIPDRFSGSGSGTDFTLTISRLEPEDFAVYYCQQYDNWPYTFGQGTKLEIK
B16: E35-scFv LS26G (scFv, V domains shown)
VH: QMQLVQSGAEVKKPGASVKVSCKVSGYTLTELSIHWVRQAPGKGLEWMGGFDPEDGETIYAQKFQGRVTMTGDTSTDTAYLELSSLRSEDTALYYCATGRYTSLATTYGFDYWGQGTLVTVSS
VL: EIVMTQSPATLSLSPGERATLSCRAGQSVSSYLAWYQQKPGQAPRLLIYGASSRATGIPDRFSGSGSGTDFTLTISRLEPEDFAVYYCQQYDNWPYTFGQGTKLEIK
B17: E35-scFv LQ27L (scFv, V domains shown)
VH: QMQLVQSGAEVKKPGASVKVSCKVSGYTLTELSIHWVRQAPGKGLEWMGGFDPEDGETIYAQKFQGRVTMTGDTSTDTAYLELSSLRSEDTALYYCATGRYTSLATTYGFDYWGQGTLVTVSS
VL: EIVMTQSPATLSLSPGERATLSCRASLSVSSYLAWYQQKPGQAPRLLIYGASSRATGIPDRFSGSGSGTDFTLTISRLEPEDFAVYYCQQYDNWPYTFGQGTKLEIK
B18: E35-scFv LQ27R (scFv, V domains shown)
VH: QMQLVQSGAEVKKPGASVKVSCKVSGYTLTELSIHWVRQAPGKGLEWMGGFDPEDGETIYAQKFQGRVTMTGDTSTDTAYLELSSLRSEDTALYYCATGRYTSLATTYGFDYWGQGTLVTVSS
VL: EIVMTQSPATLSLSPGERATLSCRASRSVSSYLAWYQQKPGQAPRLLIYGASSRATGIPDRFSGSGSGTDFTLTISRLEPEDFAVYYCQQYDNWPYTFGQGTKLEIK
B19: E35-scFv LS26C (scFv, V domains shown)
VH: QMQLVQSGAEVKKPGASVKVSCKVSGYTLTELSIHWVRQAPGKGLEWMGGFDPEDGETIYAQKFQGRVTMTGDTSTDTAYLELSSLRSEDTALYYCATGRYTSLATTYGFDYWGQGTLVTVSS
VL: EIVMTQSPATLSLSPGERATLSCRACQSVSSYLAWYQQKPGQAPRLLIYGASSRATGIPDRFSGSGSGTDFTLTISRLEPEDFAVYYCQQYDNWPYTFGQGTKLEIK
B20: E35-scFv LQ27E (scFv, V domains shown)
VH: QMQLVQSGAEVKKPGASVKVSCKVSGYTLTELSIHWVRQAPGKGLEWMGGFDPEDGETIYAQKFQGRVTMTGDTSTDTAYLELSSLRSEDTALYYCATGRYTSLATTYGFDYWGQGTLVTVSS
VL: EIVMTQSPATLSLSPGERATLSCRASESVSSYLAWYQQKPGQAPRLLIYGASSRATGIPDRFSGSGSGTDFTLTISRLEPEDFAVYYCQQYDNWPYTFGQGTKLEIK

biological target: T1, human GM-CSFRα, full length on cells; assay: cell-based or functional assay

First: B1
Second: B2
The “IC50, TF-1 cell proliferation” value of the first is 1.9-fold lower: 0.062 µg/mL for the first, 0.12 µg/mL for the second.

B3 and B4 are within 1.5-fold of each other in “IC50, TF-1 cell proliferation” value: 0.065 µg/mL for the first, 0.073 µg/mL for the second.

B5 and B6 are within 1.5-fold of each other in “IC50, TF-1 cell proliferation” value: 0.089 µg/mL for the first, 0.069 µg/mL for the second.

B7 and B8 are within 1.5-fold of each other in “IC50, TF-1 cell proliferation” value: 0.089 µg/mL for the first, 0.113 µg/mL for the second.

B9 and B10 are within 1.5-fold of each other in “IC50, TF-1 cell proliferation” value: 0.081 µg/mL for the first, 0.104 µg/mL for the second.

B11 and B12 are within 1.5-fold of each other in “IC50, TF-1 cell proliferation” value: 0.105 µg/mL for the first, 0.097 µg/mL for the second.

Going from B13 to B14, the “IC50, TF-1 cell proliferation” value rises from 0.075 µg/mL to 0.113 µg/mL (1.5-fold).

B15 and B16 are within 1.5-fold of each other in “IC50, TF-1 cell proliferation” value: 0.072 µg/mL for the first, 0.078 µg/mL for the second.

B17 and B18 are within 1.5-fold of each other in “IC50, TF-1 cell proliferation” value: 0.128 µg/mL for the first, 0.117 µg/mL for the second.

B19 and B20 are within 1.5-fold of each other in “IC50, TF-1 cell proliferation” value: 0.114 µg/mL for the first, 0.135 µg/mL for the second.

From patent US20230002496A1 (STAIDSON BEIJING BIOPHARMACEUTICALS, published 2023)
